Measurements published in patent US20140186357A1.

Biological target: SUMO1 (construct transfected into HSW cells in Example 8) (human) (UniProt P63165)
Experiment: cell-based or functional assay

UniProt P63165, sequence (P63165 2-97 limits assumed): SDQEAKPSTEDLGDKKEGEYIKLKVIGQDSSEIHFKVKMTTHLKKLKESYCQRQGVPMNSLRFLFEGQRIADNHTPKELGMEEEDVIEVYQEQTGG

- Aβ production (secreted Aβ levels by ELISA, HSW cells): 25 % reduction
Substance: N-terminal deleted BACE1-CTF (BACE1 C-terminal fragment, residues 456-501) (peptide)
